Test results as given in the nanobody polyreactivity screen of Harvey et al. (2022).

Test: yeast display, Sf9 membrane polyspecificity reagent, FACS + sequencing; frameworks hold sequencing errors
Outline: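 Using colony PCR, genes from sorted yeast display clones were amplified, then sequenced on MiSeq at 2 × 250 and filtered by CDR length. The clones had been stained with 10% biotinylated, detergent-solubilized Sf9 membrane reagent for 1 hour at 4 °C and sorted by FACS into low and high (top ~1%) gates on anti-HA and streptavidin fluorescence. Polyreactivity labels come from the gate of origin.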

Sequence	polyreactivity (PSR sort gate)
QVQLVESGGGLVQARGSLRLSCAASGSTLTRNALGWYRQAPGKERELVAAITQRGGSTYYADSVKGRFTISRDNGKNTVYFQMNSLKPEDTAVYYCAKVPSVKYRSIWVLPEYGWGQGTQVTVSS	high polyreactivity
QVQLVESGGGLVQARGSLRLSCAASGSTSTYYAMGWYRQAPGKERELVAAITSSVGSTHYADSVKGRFTISRDNAKNTVYLQMNSLKPEDTAVYYCAATFGYGRYGYWGQGTQVTVSS	low polyreactivity
QVQLVESGGGLVQARGSLRLSCAASGYIINQYTKGWYRQAPGKERELVADISSGGSTKYADSVKGRFTISRDNGKNTVSLQMNSLKPEDTAVYYCNGEYDSGSPTAYDWEYDYWVQGTQVTVSS	high polyreactivity
QVQLVESGGGLVQARGSLRLSCAASVGILNWYALGWYRLAPVKEWELVAAISWSGGSTYYADSVKGRFTISRDNAKNTVYLHFNSLKPEVTAVYYCAAHSRGRFSRTYGYWGDGTQVTVSS	high polyreactivity
QVQLVESGGGLVQARGSLRLSCAATGSTFDKYAMGRYRQAPGKERELVAAISSSGTRTYYADSVKGRFTISRDNAKITVYLQMNSLKPEDTAVYYCDTGGSNKYYYWGQGTQVTVSS	high polyreactivity
QVQLVESGGGLVQARGSLRLSSAATGLIILAYAMGWYRQAPGKERELVAAISTSGSTYYADSVKGRFTISRDNAKNTVYLQMNSLKPEDTAVYYCAAYYRWSVTYYDWGQGTQGTVSS	high polyreactivity
QVQLVESGGGLVQARGSLRLTCAASGRNFYLNAMGWYRQAPGKERELVAAITWSGGRTYYADSVKGRFTISRDNAKNTVYLQMYSLKPEDTAFYYCAAVPRPGPNTVLTPYVYWGQGTQVTVSS	high polyreactivity
QVQLVESGGGLVQARGSLRVSCAASGSTFGRYAMGWYRQAPGKDRELVAAITGSGGSTYYADSVKGRFTISRDNAKNTVYLHMNSLKPEDTAVYYCAAPVDYRRYEYEYWGQGTQVTVSS	low polyreactivity
QVQLVESGGGLVQAVGSHRLSCAASGFIFTSYAMGCYRQAPGKERELVAAITRSGGRTYYADSVKGRFTISRDNAKNTVYLQMNSLKPEDTAVYYCAAVTFYQSPARGYWGQGTQVTVSS	high polyreactivity
QVQLVESGGGLVQAVGSLRLSCAASASIFRNNAMGWYRQAPGKERELVASISSSGDNTNYADSVKGRFTISRDNAKNTVYLQMNSLKPEDTAVYYCAAANKGPDQADYHYDQWGQGTQVTVSS	low polyreactivity
QVQLVESGGGLVQAVGSLRLSCAASGGIFTLYVMGWYRQAPGKERELVAAISRTGGSTYYADSVKGRFTISRDNAKNTVYLQMNSLKPEDTAVYYCAALYRGGTRYGGYDYWGQGTQVTVSS	low polyreactivity
QVQLVESGGGLVQAVGSLRLSCAASGLIFERYAMGSYIQAPGKEREFVAAISKRGGSTYYADSVKGRFTISRDNAKNTVYLQMNSLKPEDTAVYDCAVQPNYYGMGYCGQGTQVTVSS	high polyreactivity
QVQLVESGGGLVQAVGSLRLSCAASGRTFDFYAMGWYREAPGKEREFVAAISSRGGSTYYADTVKGRFTISRDNAKNTVYLQMNSLKPEDTAVYYCAKDLGYRGRYNYWGQGTQVTVSS	low polyreactivity
QVQLVESGGGLVQAVGSLRLSCAASGSIFPVYAMGWYRQAPGKERELVADITYTTGSTYYADSVKRRFTISRDNAKNTFYLQMNSLKPEDTAVYYCAKDFGFQSDSWGQGTQVTVSS	low polyreactivity
QVQLVESGGGLVQAVGSLRLSCAASGSTFAYYAMGWYRQAPGKEREFVAAISTRGGSTYYADSVKGRFTISRDNAKNTVYLQLISLKQEDTAFYYCAAGYFIYSWRIRFDHWGQGTQVTVSS	high polyreactivity
QVQLVESGGGLVQAVGSLRLSCADSGRLLSYYDMGWYRQAPGKVRELVARLGGTYYADSVKGRFTISRYIAKNTVYLQMNSLKPEDTAVYYCAAEYGYDFLRSYHEYGYWGQGTQVTVSS	low polyreactivity

Sequence	polyreactivity (PSR sort gate)
QVQLVESGGGLVQAVGSLRLSCAPSGSTFPYYAMGWYRQAPGKERELVASIRKRGGGTYYADSVKGRFTISRDNAKNTVYLQMNSLKPEDTAVYYCAVRVYQFRYTGYDYWGQGTQVTVSS	high polyreactivity
QVQLVESGGGLVQAVGSLSLSCAASGIIFTWYDMGWYRPAPGKERELVAAISYIGGGSTYYADSVKGRFTISRDNAKNTVYLQMNSLKPEDTAVYYCATDFYYAKYGYWGQGTQVTVSS	low polyreactivity
QVQLVESGGGLVQEGGSLCLSCAASGINFYYYTMGWYRQATGKERELVDAISGDDTHYADSVKGRFTISGDNAKKTVYLLMNSLKADHTAVYYCAAGYIYWDTVQSVYEYGYCGQGTQVTVSS	low polyreactivity
QVQLVESGGGLVQEGGSLLLSCAASGRTFNQYAMGWYRQAPGKERELVAGITISGGSTYYADSVKGRFTISRENAKNTVYLQMNSLIPEDTAVYYCIAVFDYYRQSKWTMDYWGQGTQVTVSS	low polyreactivity
QVQLVESGGGLVQEGGSLPLSCAASGSIIWVYAMGWYRQPPGKERELFAAITSGVSTYYADSVKGRFTISRDNAKITVYFQFNRLKPEDSAVYDCAVVGGFRWIRMEYWGQGTQVSVSS	low polyreactivity
QVQLVESGGGLVQEGGSLRISCAASGRIFDSNAMVWYRQAPGKERELVAAISNGGTTNYADSVKGRFTISRDNAKNTVYLQMNSLKPADTAVYYCAARGRVVWYNGGSYRFYYWGQGTQVTVSS	high polyreactivity
QVQLVESGGGLVQEGGSLRISCAASGSIFQSNAMGRYRQAPGKERERVAAISSSGVRTYYADSVKGRFTISRDNAKNTVYLQMNSLKREDTAVYYCATGWYYAGGPTYEYYYWGQGTQVTVSS	low polyreactivity
QVQLVESGGGLVQEGGSLRLICAASGGIFIYNAMGWYRQEPGKEREFVAAINISGGNTYYADSVKGRFTISRDNAKNTVYLQMNSLKPEDTAVYYCAARYASSWWIRYYYWGQGTQVSVSS	high polyreactivity
QVQLVESGGGLVQEGGSLRLICAASGLIFPRYSMGWYRQAPGKERELVAAITRGGSTYYADSVKGRFTISRDNAMNTVYLQMNSLKQEDTAVSYCNAELPVHWSWYVYWGQGTQVTVSS	low polyreactivity
QVQLVESGGGLVQEGGSLRLICAASGLTFFPYAMGWYRQAPGKDRELVAAITTSDGTTYYADSVKGRFTISRDNAKNTVYLQMNSLKPEDTAVYYCAAVYSPRSVWWYDYWGQGTQVTVSS	low polyreactivity
QVQLVESGGGLVQEGGSLRLICAASGRIFAGYAMGWYSQAPGKERELVAAISQDGGSTYYADSVKGRFTISRDNAKNTVYLQMNSLKPEDTAVYYCAAEDPDSWLPWDLFDYWGQGTQVTVSS	low polyreactivity
QVQLVESGGGLVQEGGSLRLICAASGSTFKAYAMGWYRQAPGKERELVAAITNSDGDTYYADSVKGRFTISRDNAKNTVYLQMNSLKPEDRAVYYCNADDALRQTPDYNYWGQGTQVTVSS	low polyreactivity
QVQLVESGGGLVQEGGSLRLSCAASGFIFGYYAMGWYRQAPGKERELVAAISFSDGITYYADSVKGRFTISRDNAKNTVYLQMNSLKPEDTAVYYCATEILDYYYGSEYDYWGQGTQVTVSS	high polyreactivity
QVQLVESGGGLVQEGGSLRLSCAASGFIFHVNAMGWYRQAPGKERELVARITTSGGNTFYADSVKGRFTISRDNAKNTVYLQMNSLKPEDTAVYYCAIRYRYSVGWPVKNSAFGYWGQGTQVTVSS	low polyreactivity
QVQLVESGGGLVQEGGSLRLSCAASGFIFSFYVMGWYRQAPGKERELVAAISTSGASTYYADSVKGRFTISRDNAKNTVYLQMNSLKQEDTAVYYCNVVYRYGGYIYWGQGTQVTVSS	high polyreactivity
